T1: Biotinylated Human BCMA/TNFRSF17 Protein, His,Avitag (human, UniProt Q02223 1-54, biotinylated (Avitag))
T1 construct: Bought recombinant protein; also called Human BCMA-his-Bio; Human-BCMA-his-Bio
T1 sequence (looked up): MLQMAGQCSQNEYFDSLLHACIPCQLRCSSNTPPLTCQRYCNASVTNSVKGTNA

T2: Mouse BCMA/TNFRSF17 Protein, His Tag (mouse, UniProt O88472 1-49)
T2 construct: Bought recombinant protein; also called Mouse-BCMA-his; 鼠的BCMA蛋白
T2 chain (looked up): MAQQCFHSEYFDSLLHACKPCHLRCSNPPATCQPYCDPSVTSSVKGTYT

T3: BCMA on cells (293CT-BCMA, MM.1S) (UniProt Q02223 1-184, limits assumed)
T3 construct: whole, on cells; also called 细胞膜表面天然状态的BCMA
T3 sequence (looked up): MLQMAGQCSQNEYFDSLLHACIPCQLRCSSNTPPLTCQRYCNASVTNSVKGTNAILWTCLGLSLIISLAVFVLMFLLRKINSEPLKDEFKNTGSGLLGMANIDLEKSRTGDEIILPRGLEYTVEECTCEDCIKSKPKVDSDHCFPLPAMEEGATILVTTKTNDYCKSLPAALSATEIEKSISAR

B1: Clone 41 (scFv)
scFv: QSVLTQPPSVSGAPGQTVTISCTGSSSNIGAGYIVNWYQQLPGTAPKLLIYFTGNRPSGVPGRFSGSRSGTSASLAITRLQAEDEADYYCQSFDRSLGGYVFGTATKVTVLGSRGGGGSGGGGSGGGGSLEMAQLQLQESGPGLVKPSETLSLTCTVSGGSISSSSYYWGWIRQPPGKGLEWIGSISYSGSTYYNPSLKSRVTISVDTSKNQFSLKLSSVTAADTAVYYCARDRGDTILDVWGQGTMVTVSS
notes: The fusion to the phage coat protein is not described; also called 噬菌体单克隆Clone 41; Clone 41单链抗体
B2: mAb 41 (Fc fusion)
chain: B1 scFv
notes: also called Clone 41 IgG; 抗BCMA IgG (Clone 41); not shown: Human IgG4 Fc

How the values were obtained:
[1] = biological target: T1, Biotinylated Human BCMA/TNFRSF17 …; assay: phage ELISA
[2] = biological target: T2, Mouse BCMA/TNFRSF17 Protein, His Tag; assay: phage ELISA
[3] = biological target: T3, BCMA on cells (293CT-BCMA, MM.1S); assay: phage flow cytometry on 293CT-BCMA cells
[4] = biological target: T3, BCMA on cells (293CT-BCMA, MM.1S); assay: flow cytometry titration on 293CT-BCMA and MM.1S cells

Binder | binding result [1] | binding result [2] | binding result [3] | binding result [4]
B1 | binds | no binding | binds | –
B2 | – | – | – | binds

From patent CN114891108A (SHANGHAI XUNLU BIO TECH CO LTD, dated 2022)
